Results as given in the supplement of paper PMC9732359.
± gives the uncertainty stated by the source.

Experiment: protein stability index of a GFP-peptide fusion (yeast GPS) (PSI 1-4); higher = more stable; sorted into four equal gates, so the index is relative within each strain
Conditions: doa10∆
How it was run: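 Tiled 17-residue peptides from yeast proteins were fused downstream of GFP on a plasmid that also expresses Cherry, and the pooled library was carried in yeast. Mid-log cultures grown in leucine-free medium were sorted into four equal gates by GFP/Cherry fluorescence ratio. Plasmids from each gate were PCR-amplified and Illumina-sequenced, and reads were assigned to strains by barcodes. Each peptide's protein stability index is the sum, over gates, of the gate's read frequency multiplied by its gate number.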
Sequence LREKEDKKNSSDPNNQS [YJL039C/NUP192] has a protein stability index of 3.06 ± 0.11.
With LRFGEGASGEERLMSRP [PUP2] the protein stability index was 3.52 ± 0.15.
For LRHMPLASIPDIFITPT [SSN2], the protein stability index was 1.78 ± 0.054.
LRKQKDSSTTSSNSQQS [ITC1] showed a protein stability index of 3.12 ± 0.059.
In the case of LRRSGQIANDPSKKRRR [SMD1], the protein stability index is reported as 2.58 ± 0.078.
Work on LRSDFYILANHYLSRVL [YJL039C/NUP192] yielded a protein stability index of 2.81 ± 0.054.
Work on LRSKLFQFKLLQSNSKL [SMC4] yielded a protein stability index of 1.84 ± 0.056.
With LSALNSEISSLKGKINN [SMC1] the protein stability index was 3.03 ± 0.09.
In the case of LSDIETAVNGIDTDLFG [YGL172W/NUP49], the protein stability index is reported as 3.11 ± 0.079.
Work on LSDLSSPVQDWNLLRSL [YML103C/NUP188] yielded a protein stability index of 3.29 ± 0.14.
For LSDYEVLKFLTDLEKKH [RPC17], the protein stability index was 3.38 ± 0.13.
LSDYIPGPYPNEQAARA [CYT1] gave a protein stability index of 2.1 ± 0.054.
Sequence LSEEETLLVIRRLHKVL [SNF2] has a protein stability index of 1.7 ± 0.086.
LSERKAEKAEIRKRRAS [RPS6A] gave a protein stability index of 3.44 ± 0.17.
LSGIIQDIYYLAQTLKL [RRI2] showed a protein stability index of 1.54 ± 0.081.
With LSGLSADKPFTRLTAYQ [YML031W/NDC1] the protein stability index was 2.95 ± 0.058.
With LSIICVGGHNVTIREQI [SIR3] the protein stability index was 2.22 ± 0.069.
LSILNEIKKVTQIVAKF [SIN4] gave a protein stability index of 3.13 ± 0.16.
In the case of LSKLEKALDRHEFFIAN [SRP68], the protein stability index is reported as 2.66 ± 0.055.
LSLYSTDLENSSLFQEK [ECM29] showed a protein stability index of 2.95 ± 0.069.
In the case of LSMNIAPRLRLEDIFQQ [RET1], the protein stability index is reported as 2.06 ± 0.05.
Sequence LSNLHESNKRYRFFKKI [SNF12] has a protein stability index of 2.79 ± 0.12.
For LSQNESTRASTVPNLPT [ISW2], the protein stability index was 2.17 ± 0.056.
In the case of LSRKPSDNKKRSGSNAA [RPC82], the protein stability index is reported as 2.92 ± 0.06.
LSSDEKRELLKRYRLKE [RPB5] gave a protein stability index of 3.08 ± 0.2.
For LSSELDSNKTLLHNHLK [SMC2], the protein stability index was 3.21 ± 0.059.
Work on LSTSVGWKYEDVVAKLE [RPL16A] yielded a protein stability index of 3.44 ± 0.11.
Work on LTALGKEKEKEREEAEK [MED2] yielded a protein stability index of 1.3 ± 0.23.
In the case of LTDLDSPSEFVDVAIPC [RPS0A], the protein stability index is reported as 2.77 ± 0.091.
Work on LTEGGSILEEKIAVLNN [SMC1] yielded a protein stability index of 3.31 ± 0.22.
With LTESQTETYISDLVNQG [RPN5] the protein stability index was 3.18 ± 0.076.
Work on LTFNSKNIQSKDSYINA [FAS2] yielded a protein stability index of 2.84 ± 0.16.
Work on LTGNQLPTPTPTEMEPD [SWI1] yielded a protein stability index of 2.67 ± 0.051.
LTHPKYLNSRIIPTTLE [YML103C/NUP188] showed a protein stability index of 2.1 ± 0.035.
LTNEISDLKGKLSSAEN [YIL149C/MLP2] gave a protein stability index of 3.38 ± 0.22.
LTSFAEENNYQYGYSGS [SNF6] gave a protein stability index of 2.08 ± 0.064.
LTSVTNDICSVENYETS [SIR4] showed a protein stability index of 2.18 ± 0.052.
Work on LTVDNLSIAIVGKDTPF [PRE5] yielded a protein stability index of 2.9 ± 0.052.
LVDKRIDMLPMLLGTDL [DIS3] showed a protein stability index of 2.17 ± 0.083.
LVDQGFNYSGKDMLYSG [RET1] showed a protein stability index of 3.46 ± 0.084.
LVLPPVVTSSVAESFTD [SNF2] gave a protein stability index of 2.13 ± 0.047.
With LVNGFSQSQQKLLKEKV [MED2] the protein stability index was 2.03 ± 0.055.
With LVNIRTQTSKEQEIENN [ITC1] the protein stability index was 2.9 ± 0.054.
In the case of LVPPPRTIANQDHFHRL [RPR2], the protein stability index is reported as 3.01 ± 0.086.
For LVQKTVQESGNIDYQKG [GRR1], the protein stability index was 3.5 ± 0.1.
LVRSIIAFDDLIENKIQ [RPN8] showed a protein stability index of 1.94 ± 0.075.
For LVSEKIINSTALMKEKD [RPC82], the protein stability index was 3.19 ± 0.17.
For LVSVTSTLQHFQETLDS [MED8], the protein stability index was 2.4 ± 0.055.
With LVVYAEDNGIVKALRNV [RPL4A] the protein stability index was 2.1 ± 0.14.
LVYDVKGRFAVHRITDE [RPS4A] showed a protein stability index of 3.25 ± 0.078.
For LWRNFCRKLSFSDKVNA [ITC1], the protein stability index was 2.09 ± 0.19.
Sequence LYAVSTFENTNNTEKND [SIR4] has a protein stability index of 2.37 ± 0.072.
With LYQIWIVMVWLKENTYV [YDL116W/NUP84] the protein stability index was 1.85 ± 0.061.
Sequence LYQLFKTCIQGINSPLS [YJL039C/NUP192] has a protein stability index of 1.83 ± 0.12.
In the case of LYRYRFDPFQAVSRSMT [ECM29], the protein stability index is reported as 2.57 ± 0.067.
With LYVPRKCSATNRIIKAD [RPS21A] the protein stability index was 3.08 ± 0.27.
In the case of LYYPQKPLGTTRAMEYL [RPB2], the protein stability index is reported as 2.17 ± 0.089.
Sequence MAISKNLPILKNHFRKH [RPL13A] has a protein stability index of 2.89 ± 0.1.
With MAKCLDNPDQGISDMCR [YCS4] the protein stability index was 3.39 ± 0.19.
MANIPERIINVGVIGPL [SNU114] showed a protein stability index of 2.18 ± 0.28.
Sequence MAPFRQDSILIIYPRSQ [ARP9] has a protein stability index of 2.41 ± 0.28.
MAQNKTHIPQTNLKNHP [YLR018C/POM34] showed a protein stability index of 3.12 ± 0.082.
MASLPHPKIVKKHTKKF [RPL32] showed a protein stability index of 2.41 ± 0.088.
With MASRVDETTVPSYYYYV [ROX3] the protein stability index was 1.48 ± 0.07.
With MAVGKNKRLSKGKKGQK [RPS1A] the protein stability index was 1.5 ± 0.14.
MAYFDENLNRNWRGREH [BRN1] gave a protein stability index of 3.25 ± 0.099.
Work on MDALTLMKCCHEAYSII [RRP45] yielded a protein stability index of 1.77 ± 0.063.
Sequence MDIILGIRVQDSVILAS [PRE1] has a protein stability index of 1.47 ± 0.23.
For MDLLKFSSLAISEINFL [CSI1], the protein stability index was 2.1 ± 0.045.
MEDIEKIKPYVRSFSKA [LRP1] showed a protein stability index of 2.64 ± 0.062.
With MEEEQQRQERLRQQQQQ [RPN10] the protein stability index was 3.4 ± 0.17.
Sequence MENNEPAMAMEDLKNFI [SRB8] has a protein stability index of 3.18 ± 0.074.
In the case of MFAYAKEHEPCIIFMDE [RPT4], the protein stability index is reported as 2.34 ± 0.043.
With MFLYILKHLEEMGKLRE [RRI2] the protein stability index was 3.11 ± 0.11.
Work on MFRNNYDGDTVTFSPTG [PRE5] yielded a protein stability index of 2.41 ± 0.12.
With MFTQIYLERIELSFYIL [YML103C/NUP188] the protein stability index was 1.66 ± 0.1.
In the case of MGKGKPRGLNSARKLRV [RPS23A], the protein stability index is reported as 2.4 ± 0.089.
Sequence MGPLSNIAQMIPGMSNM [SRP54] has a protein stability index of 2.49 ± 0.049.
In the case of MGRVIRNQRKGAGSIFT [RPL2A], the protein stability index is reported as 2.95 ± 0.2.
MGVPIYGIVAMAATATD [FAS2] showed a protein stability index of 1.34 ± 0.068.
Sequence MIKESSTANPNIKLLNN [POP1] has a protein stability index of 3.07 ± 0.2.
In the case of MIQEVIVEEDLEPFEAS [FAS2], the protein stability index is reported as 3.5 ± 0.18.
In the case of MISIIKLVTNVVDPKTS [YML103C/NUP188], the protein stability index is reported as 1.84 ± 0.047.
With MKAVRKVAEVKKLEGTI [RPT4] the protein stability index was 3.15 ± 0.093.
In the case of MKKKLELISYRNESLKN [SRB8], the protein stability index is reported as 2.96 ± 0.045.
MKLNISYPVNGSQKTFE [RPS6A] gave a protein stability index of 2.65 ± 0.17.
In the case of MKLSMPPEVTSSNCHVR [POP1], the protein stability index is reported as 2.4 ± 0.066.
Sequence MKNENANPKKLALMTAH [CDC53] has a protein stability index of 2.12 ± 0.039.
Work on MKRNCGQIITLFSSRRL [RMP1] yielded a protein stability index of 2.3 ± 0.045.
MLLANISVARKIYDAFP [DIS3] showed a protein stability index of 1.69 ± 0.04.
In the case of MLLITSGDSGVYTLACR [RPC11], the protein stability index is reported as 1.58 ± 0.1.
With MLLLNIFISSDHEFVLI [YMR129W/POM152] the protein stability index was 1.64 ± 0.057.
With MLLVDIIPSRMGEAQTG [REC8] the protein stability index was 1.7 ± 0.063.
For MLQKKLVEVEDEKIEAI [SRB7], the protein stability index was 3 ± 0.11.
For MLTIARLGFFYNDQLYV [RPN7], the protein stability index was 2.13 ± 0.093.
MLVKAVANSTKAAFIRV [RPT3] gave a protein stability index of 1.97 ± 0.05.
MMEEIINVVIKASRKSV [ECM29] gave a protein stability index of 1.76 ± 0.073.
MMLGEHLMSWSKTGIIA [SIN4] gave a protein stability index of 1.6 ± 0.11.
Sequence MMVNNQTMQLIKNVQDL [SRB6] has a protein stability index of 2.84 ± 0.25.
MNDVINTEEVNRLEKEQ [LIN1] showed a protein stability index of 2.99 ± 0.1.
Sequence MNGIQVDINRLKKGEVS [PRE3] has a protein stability index of 2.15 ± 0.095.

Same assay, conditions: pdr5∆
In the case of LREKEDKKNSSDPNNQS [YJL039C/NUP192], the protein stability index is reported as 3.09 ± 0.13.
For LRFGEGASGEERLMSRP [PUP2], the protein stability index was 3.36 ± 0.12.
